From article PMC3078926, “Epistatic Roles for Pseudomonas aeruginosa MutS and DinB (DNA Pol IV) in Coping with Reactive Oxygen Species-Induced DNA Damage” (PLoS ONE, 2011)

Experiments:
purified protein [1] = substrate: Nc1ncnc2c1ncn2[C@H]1C[C@H](O)[C@@H](COP(=O)(O)OP(=O)(O)OP(=O)(O)O)O1; assay: purified protein; format: biochemical, Pseudomonas aeruginosa; settings: opposite template 8-oxo-dG (lesion), 13/20 8-oxo-dG-mer DNA 100 nM, 200 nM DinB, 10 mM MgCl2, pH 7.5, 25 °C
purified protein [2] = substrate: Nc1ccn([C@H]2C[C@H](O)[C@@H](COP(=O)(O)OP(=O)(O)OP(=O)(O)O)O2)c(=O)n1; assay: purified protein; format: biochemical, Pseudomonas aeruginosa; settings: opposite undamaged template dG, 13/20-mer primer/template DNA 100 nM, 200 nM DinB, 10 mM MgCl2, pH 7.5, 25 °C

B1: P. aeruginosa DinB (DNA Pol IV) (Pseudomonas aeruginosa PAO1) (protein)
chain: MRKIIHIDCDCFYAALEMRDDPSLRGKALAVGGSPDKRGVVATCSYEARAYGVRSAMAMRTALKLCPDLLVVRPRFDVYRAVSKQIHAIFRDYTDLIEPLSLDEAYLDVSASPHFAGSATRIAQDIRRRVAEELHITVSAGVAPNKFLAKIASDWRKPDGLFVITPEQVDGFVAELPVAKLHGVGKVTAERLARMGIRTCADLRQGSKLSLVREFGSFGERLWGLAHGIDERPVEVDSRRQSVSVECTFDRDLPDLAACLEELPTLLEELDGRLQRLDGSYRPDKPFVKLKFHDFTQTTVEQSGAGRDLESYRQLLGQAFARGNRPVRLIGVGVRLLDLQGAHEQLRLF
notes: C-terminally hexahistidine-tagged, recombinant, purified as described earlier
Km (purified protein [1]): 15 ± 5.0 µM | kcat (purified protein [1]): 0.066 ± 0.006 s⁻¹ | kcat/Km (purified protein [1]): 4000 M⁻¹ s⁻¹ | Km (purified protein [2]): 5.4 ± 2.3 µM | kcat (purified protein [2]): 0.12 ± 0.01 s⁻¹ | kcat/Km (purified protein [2]): 22000 M⁻¹ s⁻¹
